Reference: PMC4477663 (Nucleic Acids Research, 2015)

What was measured:
Assay in all cases: pull-down
[1] = molecular target: recombinant APE1 C65S+C99S (UniProt P27695 1-318, C65S | C99S)
recombinant APE1 C65S = recombinant APE1 C65S (UniProt P27695 1-318, C65S)
recombinant APE1 C99S = recombinant APE1 C99S (UniProt P27695 1-318, C99S)

Measured: binding result

recombinant APE1 C65S+C99S, sequence (P27695 whole entry C65S/C99S): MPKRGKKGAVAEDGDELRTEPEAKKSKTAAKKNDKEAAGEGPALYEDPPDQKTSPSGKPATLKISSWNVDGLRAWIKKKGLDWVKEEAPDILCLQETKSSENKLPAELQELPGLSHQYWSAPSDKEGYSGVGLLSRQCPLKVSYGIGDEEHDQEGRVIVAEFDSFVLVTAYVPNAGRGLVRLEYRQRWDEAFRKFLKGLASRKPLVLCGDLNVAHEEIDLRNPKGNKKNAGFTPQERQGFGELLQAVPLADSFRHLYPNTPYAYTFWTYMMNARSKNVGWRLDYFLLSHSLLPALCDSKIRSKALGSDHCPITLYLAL
recombinant APE1 C99S, sequence (P27695 whole entry C99S): as the sequence (P27695 whole entry C65S/C99S) above, with S65C counted along it
recombinant APE1 C65S, sequence (P27695 whole entry C65S): as the sequence (P27695 whole entry C65S/C99S) above, with S99C counted along it

B1: recombinant GST-Mia40 wild type (natural protein, human, UniProt Q8N4Q1 1-142, looked up)
chain: MSYCRQEGKDRIIFVTKEDHETPSSAELVADDPNDPYEEHGLILPNGNINWNCPCLGGMASGPCGEQFKSAFSCFHYSTEEIKGSDCVDQFRAMQECMQKYPDLYPQEDEDEEEEREKKPAEQAEETAPIEATATKEEEGSS
binds: all assays above
